Measured values reported in patent US20080081903A1, “METHOD FOR SCREENING TRANSCRIPTIONAL COREGULATORY PROTEINS OF TRANSCRIPTION FACTORS, AND ANDROGEN RECEPTOR TRANSCRIPTIONAL COREGULATORY PROTEINS AS TARGETS FOR ANDROGEN RECEPTOR-DEPENDENT DISEASES” (NEW YORK UNIVERSITY, priority 2001, published 2008).

Molecular target: T1, androgen receptor N-terminus (AR18-500) (Rattus norvegicus, UniProt P15207)
T1 construct: receptor residues 18 through 500 (using the rat androgen receptor number scheme); expressed in transfected cells; host or cells: Saccharomyces cerevisiae EGY188
T1 sequence (P15207 18-500): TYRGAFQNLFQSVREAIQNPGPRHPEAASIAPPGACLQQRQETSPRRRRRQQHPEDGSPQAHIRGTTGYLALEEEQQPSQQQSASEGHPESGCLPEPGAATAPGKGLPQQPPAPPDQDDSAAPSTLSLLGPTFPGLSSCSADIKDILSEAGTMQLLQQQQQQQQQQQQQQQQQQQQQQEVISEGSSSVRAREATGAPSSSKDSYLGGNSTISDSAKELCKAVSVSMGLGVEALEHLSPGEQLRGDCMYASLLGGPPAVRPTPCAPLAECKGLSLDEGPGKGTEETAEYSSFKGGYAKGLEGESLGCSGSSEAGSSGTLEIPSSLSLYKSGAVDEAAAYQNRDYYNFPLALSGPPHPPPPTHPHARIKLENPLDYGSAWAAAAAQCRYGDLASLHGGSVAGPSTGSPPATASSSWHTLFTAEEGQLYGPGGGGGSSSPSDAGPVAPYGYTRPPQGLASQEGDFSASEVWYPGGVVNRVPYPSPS
Assay: Modified yeast two-hybrid, quantitative liquid beta-galactosidase assay
Type: binding
Settings: LexA-ART fusions vs AR18-500; twelve hour incubation in galactose-containing media
Description: The modified yeast two hybrid assay is described in Hittelman et al., 1999. EGY188 was transformed by the lithium acetate method with (i) pJG4-5:AR18-500, (ii) pEG202:LNCaP cell cDNA library and (iii) pJK103, a β-galactosidase reporter gene with a single LexA operator. Potential interacting proteins were selected by plating the cDNA library expressing transformants onto galactose plates lacking leucine and containing X-gal.
Yeast were grown in selective liquid media containing 2% glucose for approximately 12 hours, pelleted, washed once with sterile H2O, normalized according to cell number and resuspended to an optical density (OD600) of 0.15 in 2% galactose/1% raffinose. β-galactosidase assays were performed 12 hours later as described previously (Garabedian et al., 1992).
Out of approximately one million library transformants, eight clones were isolated that interact with the androgen receptor N-terminus. There protein factors were termed ARTs, for Androgen Receptor Trapped, by the present inventors. The eight ART clones were sequenced and were subjected to a database search using the BLAST program. A quantitative liquid beta-galactosidase assay was used to measure the relative strength of interaction between the androgen receptor N-terminus and the ARTs using the yeast two-hybrid system. The levels of expression of the ARTs in yeast were similar, as determined by immunoblotting using an antibody to the LexA DNA-binding domain that is common to all of the ARTs.
ARTs expressed as fusion proteins with the LexA DNA binding domain were analyzed for their ability to interact with AR18-500. The relative strength of interaction was determined by a quantitative liquid beta-galactosidase assay after a twelve hour incubation in galactose-containing media at 30EC. The LexA vector alone gives 1 unit of activity.

relative strength of interaction with androgen receptor N-terminus: strongest
B1: ART-5: Androgen Receptor Trapped protein, SEQ ID NO:4, unknown function, represented in EST database (protein)
chain: MHNPDGSASPTADPGSELQTLGQAARRPPPPRAGHDAPRRTRPSARKPLSCFSRRPMPTREPPKTRGSRGHLHTHPPGPGPPLQGLAPRGLKTSAPRPPCQPQPGPHKAKTKKIVFEDELLSQALLGAKKPIGAIPKGHKPRPHPVPDYELKYPPVSSERERSRYVAVFQDQYGEFLELQHEVGCAQAKLRQLEALLSSLPPPQSQKEAQVAARVWREFEMKRMDPGFLDKQARCHYLKGKLRHLKTQIQKFDDQGDSEGSVYF
modifications: Human
